Measured values taken from patent US20200231684A1 (published 2020).
Changes are numbered by the printed parent chain. Where two headings read alike, the source gives them in different places. One block for each binder: values may come before it.

Legend:
[1] = target: T1, recombinant human IL-36R (ECD) (human, UniProt Q9HB29 20-332); assay: SPR (ProteOn), single IL-36R surface coat concentration
T1 construct: range 20-332; also called IL-1RL2; IL-1Rrp2
T1 sequence (looked up): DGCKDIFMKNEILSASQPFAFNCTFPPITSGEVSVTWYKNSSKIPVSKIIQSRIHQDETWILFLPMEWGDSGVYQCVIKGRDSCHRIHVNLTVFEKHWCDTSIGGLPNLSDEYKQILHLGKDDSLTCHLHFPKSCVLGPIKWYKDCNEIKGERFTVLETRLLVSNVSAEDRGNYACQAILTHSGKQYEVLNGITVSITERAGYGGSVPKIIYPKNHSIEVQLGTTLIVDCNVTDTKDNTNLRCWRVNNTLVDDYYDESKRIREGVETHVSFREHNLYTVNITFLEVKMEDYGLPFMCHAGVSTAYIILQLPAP
Procedure: A) Kinetics and binding affinities of anti-IL-36R antibodies binding to recombinant human IL-36R were measured using the Proteon (Bio-Rad, Hercules, Calif.) using material generated from hybridoma following single column purification. […] Binding of the chimeric anti-IL36R IgGs is equivalent to the respective mouse leads.

[2] = target: cynomolgus IL-36R on BaF/3 cells (cynomolgus, UniProt A0A2K5WSK9 20-558); assay: cell-based or functional assay
Chain of cynomolgus IL-36R on BaF/3 cells (A0A2K5WSK9 entry or part of it): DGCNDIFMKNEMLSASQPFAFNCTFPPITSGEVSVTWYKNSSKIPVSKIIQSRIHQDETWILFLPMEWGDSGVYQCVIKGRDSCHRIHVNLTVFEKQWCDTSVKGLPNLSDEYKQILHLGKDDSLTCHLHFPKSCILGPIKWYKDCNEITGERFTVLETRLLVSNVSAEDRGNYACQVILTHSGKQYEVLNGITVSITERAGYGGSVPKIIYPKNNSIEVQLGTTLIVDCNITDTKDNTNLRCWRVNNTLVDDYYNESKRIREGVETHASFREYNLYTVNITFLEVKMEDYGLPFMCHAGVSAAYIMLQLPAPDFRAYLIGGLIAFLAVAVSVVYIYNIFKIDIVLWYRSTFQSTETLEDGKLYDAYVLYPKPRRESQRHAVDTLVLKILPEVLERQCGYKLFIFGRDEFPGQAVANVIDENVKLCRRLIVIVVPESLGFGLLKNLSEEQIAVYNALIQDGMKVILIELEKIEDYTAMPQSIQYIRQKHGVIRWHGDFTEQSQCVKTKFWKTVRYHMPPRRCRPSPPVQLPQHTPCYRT

human IL-36R on cells [3] = target: T2, human IL-36R on cells (human, UniProt Q9HB29 20-575); assay: cell-based or functional assay
T2 sequence (looked up): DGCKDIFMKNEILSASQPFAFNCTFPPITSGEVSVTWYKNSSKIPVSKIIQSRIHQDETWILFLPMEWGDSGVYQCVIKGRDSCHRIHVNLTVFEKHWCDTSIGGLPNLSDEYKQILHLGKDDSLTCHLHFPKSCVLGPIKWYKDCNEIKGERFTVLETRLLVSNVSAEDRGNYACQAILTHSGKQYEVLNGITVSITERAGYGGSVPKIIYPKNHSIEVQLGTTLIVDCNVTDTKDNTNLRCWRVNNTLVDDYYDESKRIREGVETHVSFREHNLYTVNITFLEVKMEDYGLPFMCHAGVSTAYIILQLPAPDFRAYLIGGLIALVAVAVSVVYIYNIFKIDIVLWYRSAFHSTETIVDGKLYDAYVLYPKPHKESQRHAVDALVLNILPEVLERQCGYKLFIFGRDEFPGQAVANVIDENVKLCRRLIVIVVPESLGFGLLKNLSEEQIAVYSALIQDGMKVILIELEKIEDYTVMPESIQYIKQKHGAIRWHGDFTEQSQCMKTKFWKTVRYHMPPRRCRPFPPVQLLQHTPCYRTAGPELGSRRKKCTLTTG

mouse IL-36R = target: T3, mouse IL-36R (mouse, UniProt Q9ERS7 22-338); assay: BLI (Fortebio Octet), antibody injected over antigen surface
T3 sequence (looked up): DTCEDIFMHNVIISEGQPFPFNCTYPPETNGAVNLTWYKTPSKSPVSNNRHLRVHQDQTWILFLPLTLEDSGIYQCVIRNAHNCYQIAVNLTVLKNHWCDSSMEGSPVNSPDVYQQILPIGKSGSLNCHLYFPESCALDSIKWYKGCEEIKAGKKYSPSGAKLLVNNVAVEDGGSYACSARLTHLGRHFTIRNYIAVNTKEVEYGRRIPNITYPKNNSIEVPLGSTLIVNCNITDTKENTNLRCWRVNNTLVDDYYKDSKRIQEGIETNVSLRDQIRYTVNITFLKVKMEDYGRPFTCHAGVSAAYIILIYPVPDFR
Procedure: (§1) B) Molecular selectivity over mouse IL-36R and human IL-1R1 The mouse and chimeric anti-IL-36R antibodies were also injected over either a mouse IL-36R or a human IL-1R1 surface at a concentration of 100 nM. The binding signal to mouse IL-36R and to human IL-1R1 for these antibodies measured using the Fortebio Octet (Fortebio, Menlo Park, Calif.) is zero, which indicates these antibodies selectively bind to human IL-36R.

human IL-1R1 = target: T4, human IL-1R1 (human, UniProt P14778 18-336, limits assumed); assay: as above
T4 construct: also called IL-1RI
T4 sequence (looked up): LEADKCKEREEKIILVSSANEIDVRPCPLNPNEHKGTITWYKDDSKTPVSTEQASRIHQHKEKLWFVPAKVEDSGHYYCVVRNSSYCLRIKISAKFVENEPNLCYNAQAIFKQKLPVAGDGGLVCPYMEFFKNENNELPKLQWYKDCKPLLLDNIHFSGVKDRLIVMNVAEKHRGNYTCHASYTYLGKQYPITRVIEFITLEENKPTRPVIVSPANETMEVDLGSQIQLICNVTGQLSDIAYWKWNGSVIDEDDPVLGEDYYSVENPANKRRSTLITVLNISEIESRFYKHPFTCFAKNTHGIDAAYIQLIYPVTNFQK
Procedure: as §1

human IL-36R on cells [4] = target: T2, human IL-36R on cells; assay: flow cytometry, HEK293 cells transfected with full-length human IL-36R
Procedure: HEK293 cells transfected with full-length human IL-36R or NCI/ADR-RES cells were passaged for 24 hours prior to staining. Cells were removed from flasks by rinsing with 10 ml of 5 mM EDTA in PBS, and then incubated at 37° C. for 10 min with an additional 10 ml of 5 mM EDTA and 2.5 ml of Accumax to declump/disperse cells. Antibodies were then diluted to specified concentrations in PBS+2% BSA, and cells incubated for 20 min at room temperature. Excess antibody was then washed by adding 200 μl of PBS and then centrifuged. Secondary reagent was then added at 50 μl per well and cells are incubated for 15 min at room temperature and then washed as above. Cells were resuspended in 200 μl PBS and analyzed by flow cytometry.

human IL-36R on cells [5] = target: T2, human IL-36R on cells; assay: cell-based or functional assay; remark: listed apart in the source

- Kd [1]: < 0.1 nM
- IC90, pNFκB, BaF/3 cynomolgus IL-36R cells, trun-IL-36a [2]: > 4 µM
- IC90, pNFκB, BaF/3 cynomolgus IL-36R cells, trun-IL-36b [2]: > 333 nM
- IC90, pNFκB, BaF/3 cynomolgus IL-36R cells, trun-IL-36g [2]: > 333 nM
- IC90, pNFκB, NCI/ADR-RES cells, trun-IL-36g (human IL-36R on cells [3]): 3.8 nM
- binding result (mouse IL-36R): no binding (tested: 100 nM)
- binding result (human IL-1R1): no binding (tested: 100 nM)
B1: antibody 172C8 (antibody, V domains shown)
VH: EVQLQQSGPELVKPGASVKLSCKASGYTFTDNYMNWVRQSHGKSLEWIGRVNPSNGDTKYNQNFKGKATLTVDKSLSTAYMQLNGLTSEDSAVYYCGRTKNFYSSYSYDDAMDYWGQGTSVTVSS
VL: DIQMTQSPASQSASLGESVTFTCLASQTIGTWLAWYQQRPGKSPQLLIYAATSLADGVPSRFSGSGSGTQFSFNIRSLQAEDFASYYCQQVYTTPLTFGGGTKLEIK
notes: Mouse monoclonal from hybridoma; also called 172C8B12

- EC50 (human IL-36R on cells [4]): 0.609 nM
- Kd [1]: < 0.1 nM
- IC90, pNFκB, BaF/3 cynomolgus IL-36R cells, trun-IL-36a [2]: > 4 µM
- IC90, pNFκB, BaF/3 cynomolgus IL-36R cells, trun-IL-36b [2]: > 333 nM
- IC90, pNFκB, BaF/3 cynomolgus IL-36R cells, trun-IL-36g [2]: > 333 nM
- IC90, pNFκB, NCI/ADR-RES cells, trun-IL-36g (human IL-36R on cells [3]): 145 nM
- binding result (mouse IL-36R): no binding (tested: 100 nM)
- binding result (human IL-1R1): no binding (tested: 100 nM)
B2: antibody 89A12 (antibody, V domains shown)
VH: EVQLQQSGAELVRPGASVRLSCTASGFNIKDDYIHWVRQRPKQGLEWLGRIDPANGNTKYDPRFQDKATITADTSSNTAYLHLSSLTSEDTAVYYCAKSFPDNYYSYDDAFAYWGQGTLVTVSA
VL: DIQMTQSPASQSASLGESVTFSCLASQTIGTWLGWYQQKPGKSPQLLIYRATSLADGVPSRFSGSGSGTNFSFKISSLQAEDLASYYCQQLYSGPYTFGGGTKLEIR
notes: Mouse monoclonal from hybridoma; also called 89A12B8

- EC50 (human IL-36R on cells [4]): 0.532 nM
- Kd [1]: < 0.1 nM
- IC90, pNFκB, BaF/3 cynomolgus IL-36R cells, trun-IL-36a [2]: > 4 µM
- IC90, pNFκB, BaF/3 cynomolgus IL-36R cells, trun-IL-36b [2]: > 333 nM
- IC90, pNFκB, BaF/3 cynomolgus IL-36R cells, trun-IL-36g [2]: > 333 nM
- IC90, pNFκB, NCI/ADR-RES cells, trun-IL-36g (human IL-36R on cells [3]): > 67 nM
- binding result (mouse IL-36R): no binding (tested: 100 nM)
- binding result (human IL-1R1): no binding (tested: 100 nM)
B3: antibody 67E7 (antibody, V domains shown)
VH: B2 VH with L11F, R19K, L20F, K42E, L48V, D61A, R63K, H82Q, D102N
VL: B2 VL with S22T, A51S, S53T, N70K, E81A, L83F, G94A
notes: Mouse monoclonal from hybridoma; also called 67E7E8

- IC90, pNFκB, NCI/ADR-RES cells, trun-IL-36a (human IL-36R on cells [5]): 4.6 nM
- IC90, pNFκB, NCI/ADR-RES cells, trun-IL-36b (human IL-36R on cells [5]): 5.5 nM
- IC90, pNFκB, NCI/ADR-RES cells, trun-IL-36g (human IL-36R on cells [5]): 3.4 nM
B4: Antibody C1 (antibody, human IgG1, kappa, L234A L235A, V domains shown)
VH: QVQLQESGPGLVAPSETLSLTCTVSGFSLTDYAVHWIRQFPGKGLEWIGVIWSDGSTDFNAPFKSRVTISKDTSKNQVSFKLSSVTTDDTAVYYCARKGGYSGSWFAYWGQGTLVTVSS
VL: EIVMTQSPATLSVSPGVRATLSCKASQDVGTNVLWYQQKPGQAPRPLIYSASYRHSGIPARFSGSGSGTEFTLTISSLQSEDFAEYYCQQYSRYPLTFGQGTKLEIKR
